In patent US20170275375A1 (published 2017) one finds EC50 data, which are given here for 2 molecules.

Test [1] has as its target T1, recombinant human PD1-His (human, UniProt Q15116 25-167, limits assumed).
T1 construct: also called recombinant PD1-His; not shown: His tag
As to the kind of experiment: in vitro binding to recombinant human PD1-His (FIG. 32).

For test [2], the target named is T2, human PD1 expressed on cells (activated Jurkat T cells; SpESFX-2D1 transfectants) (human, UniProt Q15116 25-288).
T2 construct: whole, on cells; Endogenous on stimulated Jurkat cells; transfected human PD1 on SpESFX-2D1; also called CD279; 2D1 cells
T2 sequence (Q15116 25-288): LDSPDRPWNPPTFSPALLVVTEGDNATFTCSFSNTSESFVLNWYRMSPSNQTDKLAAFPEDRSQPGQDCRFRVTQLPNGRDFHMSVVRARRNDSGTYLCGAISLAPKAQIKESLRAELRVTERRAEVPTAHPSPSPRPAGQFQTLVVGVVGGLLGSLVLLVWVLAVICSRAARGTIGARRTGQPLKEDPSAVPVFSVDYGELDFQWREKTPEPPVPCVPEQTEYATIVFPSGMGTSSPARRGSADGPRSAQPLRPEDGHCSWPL
As to the kind of experiment: binding to 2D1 cells transfected with human PD1.

As a reminder, the EC50 is the concentration needed to bring the measured effect to its halfway point.

T1 sequence (Q15116 25-167 limits assumed): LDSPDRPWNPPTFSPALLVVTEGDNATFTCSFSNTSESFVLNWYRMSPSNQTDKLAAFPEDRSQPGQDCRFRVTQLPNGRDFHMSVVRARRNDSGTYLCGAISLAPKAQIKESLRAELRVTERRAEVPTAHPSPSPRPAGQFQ

B1: 2G9 (IMMU-cPD1) (antibody, V domains shown)
VH: VKLQESGGGLVKPGGSLKLSCAASGFAFSSNDMSWVRQTPEKRLEWVATISGGGINTYYPDSVKGRFTISRDNARNTLDLQMSSLRSEDTALYYCARRSNYAWFAYWGQGTPVTVSA
VL: not shown
notes: also called chimeric anti-PD1; chimeric version of 5G9
On to B1, for which the EC50 in test [1] is 0.072 nM; in test [2] it was 0.168 µg/mL.

B2: humanized anti-PD1 antibody version 5 (V5) (antibody, V domains shown)
VH: QVQLVESGGGLVKPGGSLRLSCAASGFAFSSNDMSWVRQAPGKGLEWVATISGGGINTYYPDSVKGRFTISRDNAKNTLYLQMNSLRAEDTAVYYCARRSNYAWFAYWGQGTPVTVSA
VL: DIQLTQSPASLAVSLGQRATISCRASESVDTYGISFMNWFQQKPGQPPKLLISPNQGSGVPARFSGSGSGTDFTLTINSLEAEDTAVYFCQQSKEVPWTFGGGTKLEIK
notes: V5 is V4 with a putative light-chain N-glycosylation site removed; also called hPD1 v5; hPD1 (v5)
In test [2], B2 returned an EC50 of 0.568 µg/mL.
